What follows are sequences tested against T1, PoxCxrA17-150 (Penicillium oxalicum HP7-1) (UniProt A0A2H4WV05) (assay: EMSA). Settings: 20 mM Tris-HCl pH 8.0, 50 mM KCl, 5% glycerol, 1 mM DTT, 0.1 mg/mL BSA; 40 ng FAM probe, 0-4.8 ug protein; 4% PAGE in TAE; temperature not stated.
T1 sequence: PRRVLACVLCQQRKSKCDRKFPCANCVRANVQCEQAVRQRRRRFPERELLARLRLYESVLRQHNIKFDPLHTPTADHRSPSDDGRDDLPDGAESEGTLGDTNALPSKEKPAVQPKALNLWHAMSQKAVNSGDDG

Sequence	binding
GTGAAAGAGGTGCTTGTCGTGATCGCTTGCCATATGTTTCACTGTATGACTTGGGCACCGGAGCGGCACCGTGAATCAGGCTGGCCAAATCCATTGTCGGACTAGATGCTTCGTCCGTTGGGATCGTTGAATTGTGCGGAATCAGTGTCGTCGAGTGATACAATTGGGACGTGAGATTTAGTCACGACCGATAAGGTG (double strand) [PoxCxrB promoter (CxrA probe)]	binds
CGGCTTCCAAAGACCCCATATCGACGATCGGCGATTTGGGGAGGGACTAAAGTAGGAGGGAGAGGGAGGGAGCAGAGAGGGAGGGAGCAGAGAGAGAGGGAGAGAGGGAGAGCAAGGGTGAATAACAAGAAAGCGACGATGACAAGGTTGGTAAGATAAC (double strand) [PoxNsdD promoter (CxrA probe)]	binds
TTAGGAGTGCTATAAGATGGCGACAGAAGTCGGCCGAGGAGGAAATTCTCGTTTCCATCCACCGAGTCTGCATACATTGGATTTCGAGTTGTCAAAATGAGATACGATTTGATTCTTGCCGCCGGCGCCACTCTGGCACTGGCCGTGCCCCAGGGCATCTCCAAGCGGGCCGGAGGCTTTGTCTGTAAGTTG (double strand) [POX01166/Cel5B promoter (CxrA probe)]	binds
